# In IntAct's records for PubMed 29778605:
# B1: Vacuolar protein sorting-associated protein 33B (Homo sapiens), Q9H267 (parent)
# chain: MAFPHRPDAPELPDFSMLKRLARDQLIYLLEQLPGKKDLFIEADLMSPLDRIANVSILKQHEVDKLYKVENKPALSSNEQLCFLVRPRIKNMRYIASLVNADKLAGRTRKYKVIFSPQKFYACEMVLEEEGIYGDVSCDEWAFSLLPLDVDLLSMELPEFFRDYFLEGDQRWINTVAQALHLLSTLYGPFPNCYGIGRCAKMAYELWRNLEEEEDGETKGRRPEIGHIFLLDRDVDFVTALCSQVVYEGLVDDTFRIKCGSVDFGPEVTSSDKSLKVLLNAEDKVFNEIRNEHFSNVFGFLSQKARNLQAQYDRRRGMDIKQMKNFVSQELKGLKQEHRLLSLHIGACESIMKKKTKQDFQELIKTEHALLEGFNIRESTSYIEEHIDRQVSPIESLRLMCLLSITENGLIPKDYRSLKTQYLQSYGPEHLLTFSNLRRAGLLTEQAPGDTLTAVESKVSKLVTDKAAGKITDAFSSLAKRSNFRAISKKLNLIPRVDGEYDLKVPRDMAYVFGGAYVPLSCRIIEQVLERRSWQGLDEVVRLLNCSDFAFTDMTKEDKASSESLRLILVVFLGGCTFSEISALRFLGREKGYRFIFLTTAVTNSARLMEAMSEVKA
# partner: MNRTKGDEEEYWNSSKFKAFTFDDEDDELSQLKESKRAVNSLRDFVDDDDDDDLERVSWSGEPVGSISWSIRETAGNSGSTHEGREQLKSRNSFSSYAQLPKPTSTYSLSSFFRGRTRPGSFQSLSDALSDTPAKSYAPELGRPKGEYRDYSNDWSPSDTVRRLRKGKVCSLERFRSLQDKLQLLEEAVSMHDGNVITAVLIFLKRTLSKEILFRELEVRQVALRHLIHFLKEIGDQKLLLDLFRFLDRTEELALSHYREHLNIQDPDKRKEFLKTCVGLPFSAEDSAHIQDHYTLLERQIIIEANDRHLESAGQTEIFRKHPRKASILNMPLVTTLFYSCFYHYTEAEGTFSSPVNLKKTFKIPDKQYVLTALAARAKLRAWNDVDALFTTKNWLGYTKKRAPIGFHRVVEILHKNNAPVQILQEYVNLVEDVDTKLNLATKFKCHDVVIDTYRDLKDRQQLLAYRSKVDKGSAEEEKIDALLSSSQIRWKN
# B2: Vacuolar protein sorting-associated protein 33A (Homo sapiens), Q96AX1 (parent)
# chain: MAAHLSYGRVNLNVLREAVRRELREFLDKCAGSKAIVWDEYLTGPFGLIAQYSLLKEHEVEKMFTLKGNRLPAADVKNIIFFVRPRLELMDIIAENVLSEDRRGPTRDFHILFVPRRSLLCEQRLKDLGVLGSFIHREEYSLDLIPFDGDLLSMESEGAFKECYLEGDQTSLYHAAKGLMTLQALYGTIPQIFGKGECARQVANMMIRMKREFTGSQNSIFPVFDNLLLLDRNVDLLTPLATQLTYEGLIDEIYGIQNSYVKLPPEKFAPKKQGDGGKDLPTEAKKLQLNSAEELYAEIRDKNFNAVGSVLSKKAKIISAAFEERHNAKTVGEIKQFVSQLPHMQAARGSLANHTSIAELIKDVTTSEDFFDKLTVEQEFMSGIDTDKVNNYIEDCIAQKHSLIKVLRLVCLQSVCNSGLKQKVLDYYKREILQTYGYEHILTLHNLEKAGLLKPQTGGRNNYPTIRKTLRLWMDDVNEQNPTDISYVYSGYAPLSVRLAQLLSRPGWRSIEEVLRILPGPHFEERQPLPTGLQKKRQPGENRVTLIFFLGGVTFAEIAALRFLSQLEDGGTEYVIATTKLMNGTSWIEALMEKPF
# partner: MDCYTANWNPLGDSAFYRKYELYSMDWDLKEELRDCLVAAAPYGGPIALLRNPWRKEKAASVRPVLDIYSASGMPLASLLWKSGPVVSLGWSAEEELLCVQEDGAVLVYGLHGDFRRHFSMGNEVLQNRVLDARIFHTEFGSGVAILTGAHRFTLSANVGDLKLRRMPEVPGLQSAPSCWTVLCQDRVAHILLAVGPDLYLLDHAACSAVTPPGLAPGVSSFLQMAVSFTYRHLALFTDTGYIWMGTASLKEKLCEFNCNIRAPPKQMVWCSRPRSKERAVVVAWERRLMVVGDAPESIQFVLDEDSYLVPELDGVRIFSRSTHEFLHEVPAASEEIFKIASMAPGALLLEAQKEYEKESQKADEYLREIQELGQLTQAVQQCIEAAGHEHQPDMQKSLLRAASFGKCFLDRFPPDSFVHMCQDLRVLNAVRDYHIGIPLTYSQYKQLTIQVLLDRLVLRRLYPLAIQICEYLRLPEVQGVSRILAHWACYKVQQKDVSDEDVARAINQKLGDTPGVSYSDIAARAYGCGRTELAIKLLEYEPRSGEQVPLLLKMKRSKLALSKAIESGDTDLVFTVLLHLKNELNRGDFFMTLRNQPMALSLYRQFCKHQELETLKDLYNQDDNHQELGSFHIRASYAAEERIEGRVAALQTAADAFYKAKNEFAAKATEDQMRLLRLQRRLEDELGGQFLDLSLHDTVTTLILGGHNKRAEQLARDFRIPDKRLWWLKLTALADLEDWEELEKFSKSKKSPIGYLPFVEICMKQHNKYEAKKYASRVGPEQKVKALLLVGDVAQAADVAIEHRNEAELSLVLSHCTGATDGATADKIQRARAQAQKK
# Variants of: B1
# Settings: with spe39_human VIPAS39, Q9H9C1
row,effect of a mutation on the interaction,Variant
1,decreasing interaction strength,P428D;L431K
2,disrupting interaction strength,K419D;L431K

# Variants of: B2
# Settings: with vps16_human VPS16, Q9H269
row,effect of a mutation on the interaction,Variant
1,disrupting interaction strength,MAAHLSYGRVNLNVLREAVRRELREFLDKCAGSKAIVWDEYLTGPFGLIAQYSLLKEHEVEKMFTLKGNRLPAADVKNIIFFVRPRLELMDIIAENVLSEDRRGPTRDFHILFVPRRSLLCEQRLKDLGVLGSFIHREEYSLDLIPFDGDLLSMESEGAFKECYLEGDQTSLYHAAKGLMTLQALYGTIPQIFGKGECARQVANMMIRMKREFTGSQNSIFPVFDNLLLLDRNVDLLTPLATQLTYEGLIDEIYGIQNSYVKLPPEKFAPKKQGDGGKDLPTEAKKLQLNSAEELYAEIRDKNFNAVGSVLSKKAKIISAAFEERHNAKTVGEIKQFVSQLPHMQAARGSLANHTSIAELIKDVTTSEDFFDKLTVEQEFMSGIDTDKVNNYIEDCIAQKHSLIKVLRLVCLQSVCNSGLKQKVLDYYKREILQTYGDEHKLTLHNLEKAGLLKPQTGGRNNYPTIRKTLRLWMDDVNEQNPTDISYVYSGYAPLSVRLAQLLSRPGWRSIEEVLRILPGPHFEERQPLPTGLQKKRQPGENRVTLIFFLGGVTFAEIAALRFLSQLEDGGTEYVIATTKLMNGTSWIEALMEKPF [Y438D;I441K]
